To fix the notation:
B1: Pistol ribozyme (parent)
chain: GGGUCGUUGUUCCAUAAUCGCGUGGAUAUGGCACGCAAGUUUCUACCGGGCACCGUAAAUGUCCGACUGGAGCCGUUCGGGCGGCUAUAAACAGACCUCAGGCCCGAAGCGUGGCGGCACCUGCCGCCGGUGGUAAAAAAGAUCGGAAGAGCACACGUCU

We go through 84 variants from the RNAGym collection of RNA variant scans (doi:10.1021/acssynbio.7b00057).

In the series the parent is B1. Nature of the series: aptazyme ON/OFF ratio, guanine; higher = stronger switching; co-transcriptional cleavage with and without guanine.
As for U8G U10C U11A C13G, the “aptazyme ON/OFF ratio” value came to 1.05.
With U7C G9U U10G U11A C13U the figure was 1.06.
Take U8G U10C U11G C12U C13U: the “aptazyme ON/OFF ratio” value was found to be 1.13.
Then U7C G9A U10G C12A, with 1.15; and U7A G9C U10C U11C C12G, with 1.03; and U8A U11A C12G C13A, with 1.18.
Turning to U7C U11A C12U C13G, the “aptazyme ON/OFF ratio” value was 1.17.
As to U8A G9U U10G U11G, the “aptazyme ON/OFF ratio” value came to 1.09.
As to U8G U10G C12G C13G, the “aptazyme ON/OFF ratio” value stood at 1.14.
Then U7A U8A G9C U10G U11C C12A, with 1.81.
As for U7G U8A G9C U11G C12G, the “aptazyme ON/OFF ratio” value amounted to 1.04.
With U7C U8G U10A U11C C12G C13G, the “aptazyme ON/OFF ratio” value is 1.22.
Consider G9C U11C C12U C13A, for which the “aptazyme ON/OFF ratio” value came to 1.09.
On to U7A U8C G9C U10C U11A C13U, for which the “aptazyme ON/OFF ratio” value amounted to 1.04.
Then U7C U8C U10G U11A C13G, with 1.14.
Then U7A U8A, with 2.94.
As for U8A G9A U10G C13U, the “aptazyme ON/OFF ratio” value worked out at 1.29.
U8A G9C U10G C12G C13G: the “aptazyme ON/OFF ratio” value came out at 1.15.
With U7G G9C U10A C12U the figure was 1.18; with U7C U8G U11A C12G C13U, 1.09.
With U7C U8G G9C U10C C13U the figure was 1.71; with U7A U8C G9C U10A C12U C13G, 1.07.
Then U7C U8A U10C U11A C12G C13G, with 1.25; and U8G G9A U10A U11A C12G C13U, with 1.27.
For the variant U7C U8G G9A U10G U11C C13A, the “aptazyme ON/OFF ratio” value was found to be 1.11.
In the case of U7A U8C G9A U10A U11G C12U C13U, the “aptazyme ON/OFF ratio” value came out at 1.31.
Take U7C U8A G9C C13G: the “aptazyme ON/OFF ratio” value was determined as 1.04.
Then U7G G9A U10A U11A C12G C13G, with 1.19; and U7G U8A G9U U11G C12U C13A, with 1.1.
Then U7C G9A U10G U11G C12G C13A, with 1.07; and U8G G9A U10C U11G C13G, with 1.16.
Turning to U7A U8C G9C U10A U11C C12A C13U, the “aptazyme ON/OFF ratio” value is 1.14.
Then U8G G9U U10G U11A C12A C13U, with 1.03; and U7C G9U U10G U11G C12A C13U, with 1.17; and U7A G9U U10A U11C C12U C13A, with 1.23.
With U7C U8C U10G C12G C13U the figure was 1.13.
With U7G U8G G9A U10A U11A C12G C13U the figure was 1.33; with U7A G9C U10G U11C C12G C13U, 1.17.
On to U7A U8A U10A C12U, for which the “aptazyme ON/OFF ratio” value was 1.11.
Then U7A U8G G9C U10C U11A C13U, with 1.22; and U7G U8G U10G U11G C12A C13A, with 1.25.
Then U8C G9C U10C U11A C12A, with 1.04; and U7G U8G G9A U10C U11C C12U, with 1.1.
With U7G U8A G9U U11G C12A C13G the figure was 1.05; with G9U C12U C13A, 1.23; with U7G U10A U11A C12A, 1.07.
For the variant U7C U8C U10G U11C C12A, the “aptazyme ON/OFF ratio” value came to 1.41.
With U7G U8G G9C U10C U11C C12G C13U the figure was 1.04; with U7C U8G U11C, 3.13; with U7A U8G G9U U10G C12G C13G, 1.11.
Then U7C G9A U10C C12G C13G, with 1.26; and U7A U8A G9U C13U, with 1.21; and U8A G9A U10G U11G C12G C13G, with 1.07.
Regarding U7G U8A G9U U11G C12G, the “aptazyme ON/OFF ratio” value amounted to 1.12.
With U8C G9U U10G U11G C12G C13U the figure was 1.26; with U7C U10A U11A C12A, 1.17.
Then U7C U8G G9A C12U C13U, with 1.22; and U7C U8C U10A C12A C13G, with 1.06; and U7A U8A G9A U10A U11G C12U C13A, with 1.3.
With U7A U8C U10A C12A C13U the figure was 1.22.
Regarding U7C G9C U10G U11C C12G C13G, the “aptazyme ON/OFF ratio” value stood at 1.13.
With U7G G9A U10A U11C C12U C13G the figure was 1.15.
On to U8A G9A U10G U11G, for which the “aptazyme ON/OFF ratio” value was found to be 1.07.
In the case of U7A U8C G9C U11A C12A C13U, the “aptazyme ON/OFF ratio” value is 1.05.
With U7G U8G G9C U10G U11G C13G the figure was 1.17; with U7C U8G G9U U10G U11A C12A, 1.25.
In the case of U7C U8A G9C U10A U11G C12G, the “aptazyme ON/OFF ratio” value is 1.31.
Then U7G U10A U11C C12A C13G, with 1.2; and U7A G9C U10G C13G, with 1.14; and G9A U11A C12A, with 1.68.
Then U7C U8A G9A U10A U11C C13A, with 1.03; and U7A U8A U10A U11C C12G C13U, with 1.15.
With U7A U8A G9A U10A U11C C12G C13A the figure was 1.11; with U7A U8C U11A C13A, 1.14.
As for U7C U8C G9C U10C U11G C12G C13G, the “aptazyme ON/OFF ratio” value came to 1.12.
With U7G G9C U11C C12G the figure was 1.65; with U7G G9A C12U C13U, 1.18; with U7C U8A G9C U10A U11C C13U, 1.02.
Regarding U7C U8A G9U U10A U11G C12G, the “aptazyme ON/OFF ratio” value came to 1.14.
With U7A U8A G9C C13A the figure was 1.15.
U7A U8C G9U U10C C12U: the “aptazyme ON/OFF ratio” value was found to be 1.08.
With U8A U10C U11C C13U the figure was 1.02.
As for U7G U8A G9U U10A U11G C12U C13A, the “aptazyme ON/OFF ratio” value is 1.07.
With U7G U8G U11C C12A the figure was 1.31.
